Laboratory results as given in patent publication US20050064533A1 (ADELAIDE RESEARCH AND INNOVATION, published 2005).

Assays:
[1] = molecular target: recombinant MBP (Maltose Binding Protein) alone, negative control (UniProt P0AEX9 27-392 = MBP); experiment: pulldown on amylose-agarose resin, autoradiography
Protocol: (§1) FIG. 8. […] The CAD containing C-terminal 100 amino acids of HIF-2a was in vitro translated in the presence of ³⁵S-methionine. […] The resin mixtures were washed before the pulled down proteins were analysed by SDS-PAGE and autoradiography. Lanes 1-3 show 10% of the input translation mixtures.
(§2) Samples were centrifuged 1500 rpm, 30 secs (room temp) to pellet resin, and the supernatant discarded. Resin was then washed three times with 1 ml of the binding buffer. […] After centrifuging 30 secs/1500 rpm, 30 ul of the supernatant was separated by electrophoresis through a 12.5 % polyacrylamide gel. The gel was dried and exposed to autoradiography.

[2] = molecular target: T1, MBP (maltose binding protein) fused to wild type HIF Asparagine Hydroxylase (HNH) (UniProt Q9NWT6 1-349); experiment: pulldown on amylose-agarose resin, autoradiography
T1 construct: also called MBP-HNH; MBP/FIH-1
Protocol: as §1, §2

T1 sequence (Q9NWT6 whole entry, the tested form may be a part): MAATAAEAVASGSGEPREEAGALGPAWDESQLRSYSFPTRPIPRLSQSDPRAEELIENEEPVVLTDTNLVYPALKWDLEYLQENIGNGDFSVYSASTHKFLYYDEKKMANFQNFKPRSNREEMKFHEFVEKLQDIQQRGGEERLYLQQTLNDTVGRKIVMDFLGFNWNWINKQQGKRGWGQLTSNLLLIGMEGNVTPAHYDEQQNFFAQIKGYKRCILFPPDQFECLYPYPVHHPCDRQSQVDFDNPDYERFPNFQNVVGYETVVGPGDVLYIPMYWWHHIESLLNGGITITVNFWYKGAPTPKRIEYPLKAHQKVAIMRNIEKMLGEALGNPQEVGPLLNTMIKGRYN

| Binder | binding result [1] | binding result [2] |
| --- | --- | --- |
| C-terminal 100 amino acids of mouse HIF-2a (775-874), wild type, with N-terminal thioredoxin/6-histidine tag (other, in vitro translated in the presence of 35S-methionine (radiolabelled Met), range 775-874; also called HIF-2a CAD; wild type CAD; not shown: N-terminal thioredoxin/6-histidine tag supplied by the pET32 vector) RGLGQPLRHLPPPQPPSTRSSGENAKTGFPPQCYASQFQDYGPPGAQKVSGVASRLLGPSFEPYLLPELTRYDCEVNVPVPGSSTLLQGRDLLRALDQAT | no binding |  |
| C-terminal 100 amino acids of mouse HIF-2a (775-874), mutant N851A, with N-terminal thioredoxin/6-histidine tag (other, in vitro translated in the presence of 35S-methionine (radiolabelled Met), range 775-874; also called N851A point mutant CAD; not shown: N-terminal thioredoxin/6-histidine tag supplied by the pET32 vector) RGLGQPLRHLPPPQPPSTRSSGENAKTGFPPQCYASQFQDYGPPGAQKVSGVASRLLGPSFEPYLLPELTRYDCEVAVPVPGSSTLLQGRDLLRALDQAT | no binding |  |
| C-terminal 100 amino acids of mouse HIF-2a (775-874), mutant RLL to AAA, with N-terminal thioredoxin/6-histidine tag (other, UniProt P97481 775-874, looked up, in vitro translated in the presence of 35S-methionine (radiolabelled Met), range 775-874; also called RLL to AAA triple mutant CAD; not shown: N-terminal thioredoxin/6-histidine tag supplied by the pET32 vector) RGLGQPLRHLPPPQPPSTRSSGENAKTGFPPQCYASQFQDYGPPGAQKVSGVASAAAGPSFEPYLLPELTRYDCEVNVPVPGSSTLLQGRDLLRALDQAT | no binding | no binding |
